For one substance, Hexamer t½ (dissociation of the Zn2+-hexamer) results are on record in paper PMC5812673.

In this test the target is Insulin Aspart (human). Kind of test: hexamer dissociation kinetics.

As to Insulin Aspart (natural protein), the Hexamer t½ (dissociation of the Zn2+-hexamer) worked out at 42.7 s.
